Experimental data: US20190382488A1 (IMAGINAB, published 2019)
Where a chain is given by its changes, count along the chain named. One block for each binder: values may come before it.

Columns and labels:
[1] = target: T1, recombinant human CD8 (rhCD8) (human, UniProt P01732 22-182); assay: SPR (BIAcore), minibody captured via anti-human IgG Fc, hCD8 analyte at 50 nM
T1 construct: Soluble purified recombinant protein; also called purified recombinant human CD8 protein; soluble CD8
Description: Surface plasma resonance (SPR) was used to determine the binding affinity for all the IAb_Mb_CD8 variants to recombinant human CD8 (Table 8.0). The minibody protein in the supernatant was captured on to the BIAcore chip using an anti-human IgG (Fc-specific) antibody. The amount of minibody captured on the chip was normalized to enable a direct comparison of binding affinity between the variants as a kinetic “scouting” experiment to rank affinities. The rhCD8 protein was passed over the captured minibody protein to measure binding.
Table 8.0 summarizes the measured association (ka), dissociation (kd), and kD constants for the IAb_Mb_CD8 variants binding to recombinant hCD8. The variants were captured on a BIAcore chip using anti-human Fc-specific IgG antibody.

[2] = target: T2, cell-surface human CD8 (human, UniProt P01732 22-235); assay: flow cytometry on CD8+ cells, transfection supernatant neat to 1:81, anti-human IgG (Fc-specific)-APC
T2 construct: the cell is named under assay; also called cellular human CD8; CD8 on PC3-CD8 cells
T2 sequence (P01732 22-235 limits assumed): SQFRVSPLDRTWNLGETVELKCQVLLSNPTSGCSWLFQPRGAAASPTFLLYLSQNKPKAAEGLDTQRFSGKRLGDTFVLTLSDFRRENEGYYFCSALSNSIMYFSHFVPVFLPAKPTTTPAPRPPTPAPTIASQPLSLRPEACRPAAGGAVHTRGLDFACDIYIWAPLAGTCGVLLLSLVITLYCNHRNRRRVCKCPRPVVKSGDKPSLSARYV
Experimental: FIGS. 17A-17D display the results of the flow cytometry analysis of the IAb_Mb_CD8 variants. All histograms show allophycocyanin (APC) signal vs. counts. Supernatants from transfection of the variants at different dilutions were incubated with CD8+ cells. Cells were washed and subsequently stained with a secondary anti-human IgG (Fc-specific) APC conjugated antibody. 1×10⁵ cells were stained per point and analysis was performed with 10,000 events/point.

[3] = target: T2, cell-surface human CD8; assay: flow cytometry, HPB-ALL cells
Experimental: (§1) Flow cytometry analysis of minibodies binding to cell-surface human CD8 on HPB-ALL cells was performed. Cells were stained with respective concentrations of minibody, washed, and then stained with a secondary anti-human IgG (Fc-specific) APC-conjugated antibody. Analysis was performed with 10,000 events/point in triplicate for each concentration. The results are shown in graph format in FIG. 29A. The graph presents the normalized mean fluorescence intensity (MFI) vs. the log of the concentration (nM). Error bars represent the standard error. The data indicates an EC₅₀ of 0.15 nM and 0.19 nM.
as §1, with “analysis of IgG2 minibodies binding” for “analysis of minibodies binding”, “in FIG. 29E. The graph” for “in FIG. 29A. The graph”, “EC₅₀ of 0.1 nM, 0.13 nM, and 0.08” for “EC₅₀ of 0.15 nM and 0.19”, “nM, and 0.08 nM.” for “nM and 0.19 nM.”

[4] = target: T2, cell-surface human CD8; assay: flow cytometry on HPB-ALL cells, anti-human IgG (Fc-specific)-APC
Experimental: as §1, with “analysis of IgG2 minibodies binding” for “analysis of minibodies binding”, “in FIG. 29E. The graph” for “in FIG. 29A. The graph”, “EC₅₀ of 0.1 nM, 0.13 nM, and 0.08” for “EC₅₀ of 0.15 nM and 0.19”, “nM, and 0.08 nM.” for “nM and 0.19 nM.”

[5] = target: T2, cell-surface human CD8; assay: flow cytometry on HPB-ALL cells, Protein L-biotin then streptavidin-APC
Experimental: Flow cytometry analysis of cys-diabody (+/−C-terminal cysteine conjugation to Desferoxamine) binding to cell-surface human CD8 on HPB-ALL cells was performed. Cells were stained with respective concentrations of cys-diabody, washed, stained with a secondary Protein L conjugated to Biotin, washed, then stained with a tertiary streptavidin-APC. Analysis was performed with 10,000 events/point in triplicate for each concentration. The results are shown in graph format in FIG. 30C. The graph presents the mean fluorescence intensity (MFI) vs. the log of the concentration (nM). Error bars represent the standard error. The data indicates an EC₅₀ of 0.04 nM and 0.06 nM.

T1 sequence (P01732 22-182 limits assumed): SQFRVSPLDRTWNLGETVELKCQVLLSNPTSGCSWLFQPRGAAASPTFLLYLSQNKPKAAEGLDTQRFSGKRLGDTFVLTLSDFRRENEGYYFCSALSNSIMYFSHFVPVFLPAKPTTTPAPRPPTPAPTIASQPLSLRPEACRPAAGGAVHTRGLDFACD

- binding result [2]: binds
B2: Humanized IAb_Mb1_CD8 (other)
chain: DVQITQSPSSLSASVGDRVTITCRTSRSISQYLAWYQQKPGKVPKLLIYSGSTLQSGVPSRFSGSGSGTDFTLTISSLQPEDVATYYCQQHNENPLTFGGGTKVEIKGSTSGGGSGGGSGGGGSSQVQLVQSGAEVKKPGATVKISCKVSGFNIKDTYIHWVQQAPGKGLEWMGRIDPANDNTLYASKFQGRVTITADTSTDTAYMELSSLRSEDTAVYYCARGYGYYVFDHWGQGTLVTVSSEPKSCDKTHTCPPCGGGSSGGGSGGQPREPQVYTLPPSRDELTKNQVSLTCLVKGFYPSDIAVEWESNGQPENNYKTTPPVLDSDGSFFLYSKLTVDKSRWQQGNVFSCSVMHEALHNHYTQKSLSLSPGK
notes: Minibody homodimer, tested as transfection supernatant; also called humanized OKT8 minibody VL-VH; humanized variants

- Ka [1]: 2.2e+08 M⁻¹
- Kd [1]: 4.6 nM
- koff [1]: 0.0022 s⁻¹
- kon [1]: 480000 M⁻¹ s⁻¹
B3: IAb_Mb2a_CD8 (other)
chain: EVQLVESGGGLVQPGGSLRLSCAASGFNIKDTYIHFVRQAPGKGLEWIGRIDPANDNTLYASKFQGKATISADTSKNTAYLQMNSLRAGDTAVYYCGRGYGYYVFDHWGQGTLVTVSSGSTSGGGSGGGSGGGGSSDVQITQSPSSLSASVGDRVTITCRTSRSISQYLAWYQQKPGKVPKLLIYSGSTLQSGVPSRFSGSGSGTDFTLTISSLQPEDVATYYCQQHNENPLTFGGGTKVEIKEPKSCDKTHTCPPCGGGSSGGGSGGQPREPQVYTLPPSRDELTKNQVSLTCLVKGFYPSDIAVEWESNGQPENNYKTTPPVLDSDGSFFLYSKLTVDKSRWQQGNVFSCSVMHEALHNHYTQKSLSLSPGK
notes: also called variant 2a

- Ka [1]: 1.8e+08 M⁻¹
- Kd [1]: 5.5 nM
- koff [1]: 0.0029 s⁻¹
- kon [1]: 540000 M⁻¹ s⁻¹
B6: IAb_Mb2d_CD8 (other)
chain: QVQLVQSGAEVKKPGATVKISCKVSGFNIKDTYIHFVQQAPGKGLEWIGRIDPANDNTLYASKFQGKATITADTSTDTAYMELSSLRSEDTAVYYCGRGYGYYVFDHWGQGTLVTVSGSTSGGGSGGGSGGGGSSDVQITQSPSSLSASVGDRVTITCRTSRSISQYLAWYQQKPGKVPKLLIYSGSTLQSGVPSRFSGSGSGTDFTLTISSLQPEDVATYYCQQHNENPLTFGGGTKVEIKEPKSCDKTHTCPPCGGGSSGGGSGGQPREPQVYTLPPSRDELTKNQVSLTCLVKGFYPSDIAVEWESNGQPENNYKTTPPVLDSDGSFFLYSKLTVDKSRWQQGNVFSCSVMHEALHNHYTQKSLSLSPGK
notes: also called variant 2d

- Ka [1]: 2.2e+08 M⁻¹
- Kd [1]: 4.5 nM
- koff [1]: 0.0032 s⁻¹
- kon [1]: 720000 M⁻¹ s⁻¹
B9: IAb_Mb2c_CD8 (other)
chain: QVQLVQSGAEVKKPGATVKISCKVSGFNIKDTYIHFVQQAPGKGLEWIGRIDPANDNTLYASKFQGKATITADTSTDTAYMELSSLRSGDTAVYYCGRGYGYYVFDHWGQGTLVTVSSGSTSGGGSGGGSGGGGSSDVQITQSPSSLSASVGDRVTITCRTSRSISQYLAWYQQKPGKVPKLLIYSGSTLQSGVPSRFSGSGSGTDFTLTISSLQPEDVATYYCQQHNENPLTFGGGTKVEIKEPKSCDKTHTCPPCGGGSSGGGSGGQPREPQVYTLPPSRDELTKNQVSLTCLVKGFYPSDIAVEWESNGQPENNYKTTPPVLDSDGSFFLYSKLTVDKSRWQQGNVFSCSVMHEALHNHYTQKSLSLSPGK
notes: also called variant 2c

Continued, binder first:

B1: IAb_Mb1d_CD8 (other)
chain: DVQITQSPSSLSASVGDRVTITCRTSRSISQYLAWYQQKPGKVPKLLIYSGSTLQSGVPSRFSGSGSGTDFTLTISSLQPEDVATYYCQQHNENPLTFGGGTKVEIKGSTSGGGSGGGSGGGGSSQVQLVQSGAEVKKPGATVKISCKVSGFNIKDTYIHFVQQAPGKGLEWIGRIDPANDNTLYASKFQGKATITADTSTDTAYMELSSLRSEDTAVYYCGRGYGYYVFDHWGQGTLVTVSEPKSCDKTHTCPPCGGGSSGGGSGGQPREPQVYTLPPSRDELTKNQVSLTCLVKGFYPSDIAVEWESNGQPENNYKTTPPVLDSDGSFFLYSKLTVDKSRWQQGNVFSCSVMHEALHNHYTQKSLSLSPGK
notes: also called variant 1d
- Ka [1]: 3.4e+08 M⁻¹
- Kd [1]: 2.9 nM
- koff [1]: 0.002 s⁻¹
- kon [1]: 700000 M⁻¹ s⁻¹

B4: IAb_M1b_CD8 IgG2 EH (other)
chain: DVQITQSPSSLSASVGDRVTITCRTSRSISQYLAWYQQKPGKVPKLLIYSGSTLQSGVPSRFSGSGSGTDFTLTISSLQPEDVATYYCQQHNENPLTFGGGTKVEIKGSTSGGGSGGGSGGGGSSEVQLVESGGGLVQPGGSLRLSCAASGFNIKDTYIHFVRQAPGKGLEWIGRIDPANDNTLYASKFQGKATISADTSKNTAYLQMNSLRAEDTAVYYCGRGYGYYVFDHWGQGTLVTVSSERKCCVECPPCPGGGSSGGGSGGQPREPQVYTLPPSREEMTKNQVSLTCLVKGFYPSDIAVEWESNGQPENNYKTTPPMLDSDGSFFLYSKLTVDKSRWQQGNVFSCSVMHEALHNHYTQKSLSLSPGK
notes: Minibody homodimer with artificial IgG2 hinge-extension and IgG2 CH3
- EC50 [3]: 0.13 nM
- EC50 [4]: 0.13 nM

B5: IAb_Cys-Db3b_CD8-Df (other)
chain: DVQITQSPSSLSASVGDRVTITCRTSRSISQYLAWYQQKPGKVPKLLIYSGSTLQSGVPSRFSGSGSGTDFTLTISSLQPEDVATYYCQQHNENPLTFGGGTKVEIKGGGSGGGGEVQLVESGGGLVQPGGSLRLSCAASGFNIKDTYIHFVRQAPGKGLEWIGRIDPANDNTLYASKFQGKATISADTSKNTAYLQMNSLRAEDTAVYYCGRGYGYYVFDHWGQGTLVTVSSGGC
modifications: Desferoxamine (Df) conjugated to the C-terminal cysteine
notes: also called Df-labeled cys-diabody
- EC50 [5]: 0.06 nM

B7: IAb_M1b_CD8 IgG2 NH (other)
chain: DVQITQSPSSLSASVGDRVTITCRTSRSISQYLAWYQQKPGKVPKLLIYSGSTLQSGVPSRFSGSGSGTDFTLTISSLQPEDVATYYCQQHNENPLTFGGGTKVEIKGSTSGGGSGGGSGGGGSSEVQLVESGGGLVQPGGSLRLSCAASGFNIKDTYIHFVRQAPGKGLEWIGRIDPANDNTLYASKFQGKATISADTSKNTAYLQMNSLRAEDTAVYYCGRGYGYYVFDHWGQGTLVTVSSERKCCVECPPCPAPPVAGPGQPREPQVYTLPPSREEMTKNQVSLTCLVKGFYPSDIAVEWESNGQPENNYKTTPPMLDSDGSFFLYSKLTVDKSRWQQGNVFSCSVMHEALHNHYTQKSLSLSPGK
notes: Minibody homodimer with native IgG2 hinge and IgG2 CH3
- EC50 [3]: 0.08 nM
- EC50 [4]: 0.08 nM

B8: Humanized IAb_Mb2_CD8 (other)
chain: B9 chain with F36W, I48M, K67R, A68V, G89E, G97A
notes: Minibody homodimer, tested as transfection supernatant; also called humanized OKT8 minibody VH-VL; humanized variants
- binding result [2]: binds

B10: IAb_Mb1a_CD8 (other)
chain: DVQITQSPSSLSASVGDRVTITCRTSRSISQYLAWYQQKPGKVPKLLIYSGSTLQSGVPSRFSGSGSGTDFTLTISSLQPEDVATYYCQQHNENPLTFGGGTKVEIKGSTSGGGSGGGSGGGGSSEVQLVESGGGLVQPGGSLRLSCAASGFNIKDTYIHFVRQAPGKGLEWIGRIDPANDNTLYASKFQGKATISADTSKNTAYLQMNSLRAGDTAVYYCGRGYGYYVFDHWGQGTLVTVSSEPKSCDKTHTCPPCGGGSSGGGSGGQPREPQVYTLPPSRDELTKNQVSLTCLVKGFYPSDIAVEWESNGQPENNYKTTPPVLDSDGSFFLYSKLTVDKSRWQQGNVFSCSVMHEALHNHYTQKSLSLSPGK
notes: also called variant 1a
- Ka [1]: 5.3e+08 M⁻¹
- Kd [1]: 1.9 nM
- koff [1]: 0.0012 s⁻¹
- kon [1]: 650000 M⁻¹ s⁻¹
